B1: CDC25A (parent)
chain: KKFRTKSRTWAGEKSKREMYSRLK

Variants of: B1
Assay: protein stability index of a GFP-peptide fusion (GPS, HEK-293T) (PSI 1-6); higher = more stable
Settings: c terminus: a fixed tail appended
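Also: lentivirally expressed fusions sorted by FACS into six bins by GFP to DsRed ratio, PSI derived from sequencing read proportions per bin multiplied by bin number.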

Variant	protein stability index
KKFRTKSRTWNGEKSKREMYSRLK	2.91
KKFRTKSRTWDGEKSKREMYSRLK	2.92
KKFRTKSRTWQGEKSKREMYSRLK	3.28
KKFRTKSRTWKGEKSKREMYSRLK	2.7
KKFRTKSRTWPGEKSKREMYSRLK	3.98
KKFRTKSRTWLGEKSKREMYSRLK	2.5
KKFRTKSRTWEGEKSKREMYSRLK	2.81
KKFRTKSRTWHGEKSKREMYSRLK	3.01
KKFRTKSRTWTGEKSKREMYSRLK	3.22
KKFRTKSRTWMGEKSKREMYSRLK	2.14
KKFRTKSRTWVGEKSKREMYSRLK	2.74
KKFRTKSRTWWGEKSKREMYSRLK	2.61
KKFRTKSRTWIGEKSKREMYSRLK	2.77
KKFRTKSRTWRGEKSKREMYSRLK	2.25
KKFRTKSRTWYGEKSKREMYSRLK	2.82
KKFRTKSRTWFGEKSKREMYSRLK	2.62
KKFRTKSRTWGGEKSKREMYSRLK	3.2
KKFRTKSRTWCGEKSKREMYSRLK	2.73
KKFRTKSRTWSGEKSKREMYSRLK	4.42
KKFRTKSRTWAGTKSKREMYSRLK	3.43
KKFRTKSRTWAGWKSKREMYSRLK	3.5
KKFRTKSRTWAGHKSKREMYSRLK	3.1
KKFRTKSRTWAGGKSKREMYSRLK	3.29
KKFRTKSRTWAGRKSKREMYSRLK	3.63

Variant	protein stability index
KKFRTKSRTWAGSKSKREMYSRLK	2.97
KKFRTKSRTWAGLKSKREMYSRLK	4.12
KKFRTKSRTWAGDKSKREMYSRLK	3.61
KKFRTKSRTWAGPKSKREMYSRLK	3.27
KKFRTKSRTWAGQKSKREMYSRLK	3.34
KKFRTKSRTWAGYKSKREMYSRLK	3.25
KKFRTKSRTWAGKKSKREMYSRLK	3.49
KKFRTKSRTWAGIKSKREMYSRLK	3.07
KKFRTKSRTWAGFKSKREMYSRLK	2.19
KKFRTKSRTWAGNKSKREMYSRLK	2.79
KKFRTKSRTWALEKSKREMYSRLK	2.11
KKFRTKSRTWAVEKSKREMYSRLK	2.64
KKFRTKSRTWASEKSKREMYSRLK	2.64
KKFRTKSRTWAWEKSKREMYSRLK	2.5
KKFRTKSRTWAQEKSKREMYSRLK	2.86
KKFRTKSRTWAMEKSKREMYSRLK	3.44
KKFRTKSRTWATEKSKREMYSRLK	2.6
KKFRTKSRTWANEKSKREMYSRLK	2.26
KKFRTKSRTWAKEKSKREMYSRLK	2.42
KKFRTKSRTWAPEKSKREMYSRLK	3.93
KKFRTKSRTWAYEKSKREMYSRLK	2.61
KKFRTKSRTWAIEKSKREMYSRLK	2.43
KKFRTKSRTWACEKSKREMYSRLK	2.61
KKFRTKSRTWAFEKSKREMYSRLK	2.68

Variant	protein stability index
KKFRTKSRTWAAEKSKREMYSRLK	3.21
KKFRTKSRTWAEEKSKREMYSRLK	2.82
KKFRTKSRQWAGEKSKREMYSRLK	2.67
KKFRTKSRPWAGEKSKREMYSRLK	3.12
KKFRTKSRHWAGEKSKREMYSRLK	2.29
KKFRTKSRAWAGEKSKREMYSRLK	2.79
KKFRTKSRKWAGEKSKREMYSRLK	3.48
KKFRTKSRLWAGEKSKREMYSRLK	2.74
KKFRTKSRYWAGEKSKREMYSRLK	3
KKFRTKSRSWAGEKSKREMYSRLK	3.31
KKFRTKSRRWAGEKSKREMYSRLK	2.29
KKFRTKSRNWAGEKSKREMYSRLK	3.55
KKFRTKSRVWAGEKSKREMYSRLK	2.55
KKFRTKSRDWAGEKSKREMYSRLK	3.54
KKFRTKSRFWAGEKSKREMYSRLK	3.17
KKFRTKSRCWAGEKSKREMYSRLK	3.12
KKFRTKSRWWAGEKSKREMYSRLK	2.79
KKFRTKSRTWAGEKSLREMYSRLK	3.16
KKFRTKSRTWAGEKSHREMYSRLK	3.56
KKFRTKSRTWAGEKSQREMYSRLK	3.71
KKFRTKSRTWAGEKSAREMYSRLK	2.62
KKFRTKSRTWAGEKSGREMYSRLK	2.79
KKFRTKSRTWAGEKSIREMYSRLK	2.28
KKFRTKSRTWAGEKSMREMYSRLK	3.99

Variant	protein stability index
KKFRTKSRTWAGEKSYREMYSRLK	2.38
KKFRTKSRTWAGEKSDREMYSRLK	3.24
KKFRTKSRTWAGEKSNREMYSRLK	3
KKFRTKSRTWAGEKSPREMYSRLK	3.11
KKFRTKSRTWAGEKSRREMYSRLK	1.22
KKFRTKSRTWAGEKSSREMYSRLK	3.04
KKFRTKSRTWAGEKSWREMYSRLK	2.1
KKFRTKSRTWAGEKSVREMYSRLK	2.78
KKFRTKSRTWAGEKSKAEMYSRLK	2.77
KKFRTYSRTWAGEKSKREMYSRLK	2.92
KKFRTASRTWAGEKSKREMYSRLK	1.88
KKFRTQSRTWAGEKSKREMYSRLK	2.58
KKFRTDSRTWAGEKSKREMYSRLK	3.57
KKFRTCSRTWAGEKSKREMYSRLK	2.71
KKFRTMSRTWAGEKSKREMYSRLK	2.91
KKFRTNSRTWAGEKSKREMYSRLK	2.92
KKFRTTSRTWAGEKSKREMYSRLK	2.81
KKFRTPSRTWAGEKSKREMYSRLK	2.93
KKFRTISRTWAGEKSKREMYSRLK	2.01
KKFRTFSRTWAGEKSKREMYSRLK	2.37
KKFRTVSRTWAGEKSKREMYSRLK	2.42
KKFRTLSRTWAGEKSKREMYSRLK	2.36
KKFRTHSRTWAGEKSKREMYSRLK	3.44
KKFRTGSRTWAGEKSKREMYSRLK	3.23

Variant	protein stability index
KKFRTSSRTWAGEKSKREMYSRLK	2.32
KKFRTKQRTWAGEKSKREMYSRLK	2.39
KKFRTKKRTWAGEKSKREMYSRLK	3.11
KKFRTKERTWAGEKSKREMYSRLK	2.92
KKFRTKVRTWAGEKSKREMYSRLK	2.01
KKFRTKARTWAGEKSKREMYSRLK	3.3
KKFRTKGRTWAGEKSKREMYSRLK	2.78
KKFRTKDRTWAGEKSKREMYSRLK	3.24
KKFRTKWRTWAGEKSKREMYSRLK	3.06
KKFRTKFRTWAGEKSKREMYSRLK	2.4
KKFRTKCRTWAGEKSKREMYSRLK	2.39
KKFRTKIRTWAGEKSKREMYSRLK	2.9
KKFRTKNRTWAGEKSKREMYSRLK	3.17
KKFRTKRRTWAGEKSKREMYSRLK	3.57
KKFRTKPRTWAGEKSKREMYSRLK	3.13
KKFRTKHRTWAGEKSKREMYSRLK	3.51
KKFRTKMRTWAGEKSKREMYSRLK	2.42
KKFRTKSRTQAGEKSKREMYSRLK	4.03
KKFRTKSRTFAGEKSKREMYSRLK	3.47
KKFRTKSRTRAGEKSKREMYSRLK	3.41
KKFRTKSRTCAGEKSKREMYSRLK	4.02
KKFRTKSRTTAGEKSKREMYSRLK	3.56
KKFRTKSRTIAGEKSKREMYSRLK	2.97
KKFRTKSRTDAGEKSKREMYSRLK	3.9

Variant	protein stability index
KKFRTKSRTMAGEKSKREMYSRLK	3.66
KKFRTKSRTVAGEKSKREMYSRLK	3.9
KKFRTKSRTYAGEKSKREMYSRLK	3.14
KKFRTKSRTLAGEKSKREMYSRLK	3.53
KKFRTKSRTHAGEKSKREMYSRLK	3.76
KKFRTKSRTAAGEKSKREMYSRLK	3.89
KKFRTKSRTSAGEKSKREMYSRLK	2.79
KKFRTKSRTPAGEKSKREMYSRLK	3.55
KKFRTKSRTNAGEKSKREMYSRLK	3.6
KKFRTKSRTGAGEKSKREMYSRLK	3.92
KKFRTKSRTWAGEYSKREMYSRLK	2.25
KKFRTKSRTWAGEPSKREMYSRLK	3.36
KKFRTKSRTWAGEGSKREMYSRLK	4.36
KKFRTKSRTWAGEHSKREMYSRLK	2.82
KKFRTKSRTWAGETSKREMYSRLK	3.1
KKFRTKSRTWAGEASKREMYSRLK	2.82
KKFRTKSRTWAGECSKREMYSRLK	2.54
KKFRTKSRTWAGELSKREMYSRLK	2.51
KKFRTKSRTWAGENSKREMYSRLK	4.05
KKFRTKSRTWAGEMSKREMYSRLK	3.07
KKFRTKSRTWAGEQSKREMYSRLK	3.09
KKFRTKSRTWAGERSKREMYSRLK	2.61
KKFRTKSRTWAGEISKREMYSRLK	2.71
KKFRTKSRTWAGEFSKREMYSRLK	2.44

Variant	protein stability index
KKFRTKSRTWAGESSKREMYSRLK	2.44
KKFRTKSRTWAGEVSKREMYSRLK	2.41
KKFRTKSRTWAGEWSKREMYSRLK	1.6
KKFRTKSRTWAGEKCKREMYSRLK	3.4
KKFRTKSRTWAGEKMKREMYSRLK	3.2
KKFRTKSRTWAGEKYKREMYSRLK	1.94
KKFRTKSRTWAGEKAKREMYSRLK	3.72
KKFRTKSRTWAGEKVKREMYSRLK	2.52
KKFRTKSRTWAGEKHKREMYSRLK	3.12
KKFRTKSRTWAGEKNKREMYSRLK	2.52
KKFRTKSRTWAGEKWKREMYSRLK	1.3
KKFRTKSRTWAGEKLKREMYSRLK	2.58
KKFRTKSRTWAGEKRKREMYSRLK	2.73
KKFRTKSRTWAGEKDKREMYSRLK	3.3
KKFRTKSRTWAGEKFKREMYSRLK	3.34
KKFRTKSRTWAGEKQKREMYSRLK	2.38
KKFRTKSRTWAGEKIKREMYSRLK	2.45
KKFRTKSRTWAGEKGKREMYSRLK	2.52
KKFRTKSRTWAGEKTKREMYSRLK	3.88
KKFRTKSRTWAGEKKKREMYSRLK	3.14
KKFRVKSRTWAGEKSKREMYSRLK	3.85
KKFRRKSRTWAGEKSKREMYSRLK	3.06
KKFRPKSRTWAGEKSKREMYSRLK	2.39
KKFRWKSRTWAGEKSKREMYSRLK	3.02

Variant	protein stability index
KKFRYKSRTWAGEKSKREMYSRLK	3.24
KKFRQKSRTWAGEKSKREMYSRLK	3.23
KKFRSKSRTWAGEKSKREMYSRLK	3.71
KKFRTKSTTWAGEKSKREMYSRLK	2.95
KKFRTKSDTWAGEKSKREMYSRLK	3.57
KKFRTKSSTWAGEKSKREMYSRLK	2.7
KKFRTKSNTWAGEKSKREMYSRLK	3.38
KKFRTKSATWAGEKSKREMYSRLK	3.48
KKFRTKSMTWAGEKSKREMYSRLK	2.25
KKFRTKSETWAGEKSKREMYSRLK	4.16
KKFRTKSKTWAGEKSKREMYSRLK	3.31
KKFRTKSWTWAGEKSKREMYSRLK	4.2
KKFRTKSYTWAGEKSKREMYSRLK	4.25
KKFRTKSHTWAGEKSKREMYSRLK	2.84
KKFRTKSLTWAGEKSKREMYSRLK	3.86
KKFRTKSVTWAGEKSKREMYSRLK	3.32
KKFRTKSFTWAGEKSKREMYSRLK	2.88
KKFRTKSPTWAGEKSKREMYSRLK	3.21
KKFRTKSQTWAGEKSKREMYSRLK	3.37
KKFRTKSITWAGEKSKREMYSRLK	3.39
